This is an account of results in patent US20250186614A1, “COMPACT DRUG RESPONSIVE DOMAINS FOR REGULATION OF FUNCTION/ABUNDANCE AND DELIVERY OF POLYPEPTIDE PAYLOADS” (OBSIDIAN THERAPEUTICS, INC., priority 2022, published 2025).

The subject of this experiment is Jurkat cells. The experiment can be described thus: Tacrolimus dose response of FKBP13-AcGFP-mCherry constructs stably transduced into Jurkat cells, GFP MFI by flow cytometry. In kind it is cell-based. Also on record: Basal: unit not given here. The procedure, abridged:
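GFP geometric MFI was read by flow cytometry in mCherry+ cells and curve-fitted against tacrolimus dose. Cells were Jurkat E6-1, lentivirus-transduced with FKBP13-AcGFP-mCherry fusion constructs until 10-25% mCherry-positive on day 5 post-transduction.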

Where [1] appears, read: tacrolimus, Jurkat cells stably transduced, Table 6.
Setting [2] is: tacrolimus, Jurkat cells, Table 13.

B1: FKBP-150: FKBP13 DRD Q72R, Q84E, A117H, E61G, G124P; SEQ ID NO: 100 (protein)
chain: HCPIKSRKGDVLHMHYTGKLGDGTEFDSSLPRNQPFVFSLGTGEVIKGWDQGLLGMCEGEKRKLVIPSELGYGERGHPPKIPGPATLVFEVELLKIER
modifications: Description of sequence: FKBP13-AcGFP-mCherry Fusion; Construct Name: FKBP-150; FKBP13 DRD in Construct : FKBP13 (mutated to match FKBP12 active site Q72R Q84E A117H) (DRD E61G G124P)
In the case of B1, the “Fold Change” value under setting [1] is recorded as 21.15.

B2: FKBP-119: FKBP13 DRD Q72R, Q84E, A117W, K101W; SEQ ID NO: 69 (protein)
chain: HCPIKSRKGDVLHMHYTGKLEDGTEFDSSLPRNQPFVFSLGTGEVIKGWDQGLLGMCEGEWRKLVIPSELGYGERGWPPKIPGGATLVFEVELLKIER
modifications: Description of sequence: FKBP13-AcGFP-mCherry Fusion; Construct Name: FKBP-119; FKBP13 DRD in Construct : FKBP13 (mutated to match FKBP12 active site Q72R Q84E A117W) (DRD K101W )
For the molecule B2, the “Fold Change” value under setting [1] came to 31.91.

B3: FKBP-275: FKBP13 DRD-AcGFP construct of Table 10 (protein)
chain: HCPIKSRKDDVLHMHYTGKLEDGTEFDSSLPRNQPFVFSLGTGERIKGWDQGLLGMCEGEKRKLVIPSELGYGERGWPPKIPGGATLVFEVELLKIER
modifications: Description of sequence: Construct Name: FKBP-275; Mutation(s): Q72R Q84E A117W V85R DRD G49D
For B3, under “tacrolimus, FIGS. 33 and 34”, the FC came out at 56. In addition, under setting [2], the “Fold Change” value amounted to 56.

B4: FKBP-264: FKBP13 DRD-AcGFP construct of Table 10 (protein)
chain: HCPIKSRKGDVLHMHYTGKLEDGTEFDSSLPRNQPFVFWLGTGRRIKGWDQGLLGMCEGEKRKLVIPSELGYGERGWPPKIPGGATLVFEVELLKIER
modifications: Description of sequence: Construct Name: FKBP-264; Mutation(s): Q72R S79W Q84R A117W DRD V85R
With B4, where the note is “FIG. 45, BR1 (Biorep 1)”, the Basal is on record as 127, the FC came to 37.06 and the “At 10 uM” value amounted to 4706. The “Fold Change” value under setting [2] was found to be 37.08.

B5: FKBP-268: FKBP13 DRD-AcGFP construct of Table 10 (protein)
chain: HRPIKSRKGDVLHMHYTGKLEDGTEFDSSLPRNQPFVFSLGTGERIKGWDQGLLGMCEGEKRKLVIPSELGYGERGWPPKIPGGATLVFEVELLKIER
modifications: Description of sequence: Construct Name: FKBP-268; Mutation(s): Q72R Q84E A117W V85R DRD C42R
With B5, for the setting “tacrolimus, FIGS. 31 and 32”, the FC came out at 18. The “Fold Change” value under setting [2] came to 18.

B6: FKBP-273: FKBP13 DRD-AcGFP construct of Table 10 (protein)
chain: HCPIKSRKGDVLHMHYTGKLEDGTEFDSSLPRNQPFVFSLGTGERIKGWDQGLLGMCEGEKRKLVIPSELGYGGRGWPPKIPGGATLVFEVELLKIER
modifications: Description of sequence: Construct Name: FKBP-273; Mutation(s): Q72R Q84E A117W V85R DRD E114G
Consider B6, for which the FC (tacrolimus, FIGS. 33 and 34) was found to be 36. Besides, the “Fold Change” value under setting [2] came out at 36.

B7: FKBP-260: FKBP13 DRD-AcGFP construct of Table 10 (protein)
chain: HCPIKSRKGDVLHMHYTGKLEDGTEFDSSLPRNQPFVFSLGTGERIKGWDQGLLGMCEGENRKLVIPSELGYGERGWPPKIPGGATLVFEVELLKIER
modifications: Description of sequence: Construct Name: FKBP-260; Mutation(s): Q72R Q84E A117W V85R DRD K101N
Take B7: the FC (tacrolimus, FIGS. 31 and 32) stood at 51. Under setting [2], the “Fold Change” value is 51.

B8: FKBP-265: FKBP13 DRD-AcGFP construct of Table 10 (protein)
chain: HCPIKSRKGDVLHMHYTGKLEDGTEFDSSLPRNQPFVFSLGWGRRIKGWDQGLLGMCEGEKRKLVIPSELGYGERGWPPKIPGGATLVFEVELLKIER
modifications: Description of sequence: Construct Name: FKBP-265; Mutation(s): Q72R T82W Q84R A117W DRD V85R
On to B8, for which, where the note is “FIG. 45, BR1 (Biorep 1)”, the Basal was 78, the FC turned out to be 53.72 and the “At 10 uM” value stood at 4190. In addition, where the note is “FIG. 45, BR2 (Biorep 2)”, the Basal came to 102, the FC is on record as 41.58 and the “At 10 uM” value is 4241. Also, where the note is “tacrolimus, FIGS. 31 and 32”, the FC amounted to 58. In addition, the “Fold Change” value under setting [2] was 53.72.

B9: FKBP-262: FKBP13 DRD-AcGFP construct of Table 10 (protein)
chain: HCRIKSRKGDVLHMHYTGKLEDGTEFDSSLPRNQPFVFSLGTGERIKGWDQGLLGMCEGEKRKLVIPSELGYGERGWPPKIPGGATLVFEVELLYIER
modifications: Description of sequence: Construct Name: FKBP-262; Mutation(s): Q72R Q84E A117W V85R DRD P43R K135Y
Regarding B9, where the note is “FIG. 49, BR1 (Biorep 1)”, the Basal is given as 59.5, the FC turned out to be 66.64 and the “At 10 uM” value turned out to be 3965. Besides, for the setting “FIG. 49, BR2 (Biorep 2)”, the Basal is recorded as 73.7, the FC was 52.21 and the “At 10 uM” value is given as 3848. For the setting “tacrolimus, FIGS. 31 and 32”, the FC worked out at 73. The “Fold Change” value under setting [2] came out at 73.

B10: FKBP-266 (protein)
chain: HCPIKSRKGLVLHMHYTGKLEDGTEFDSSLPRNQPFVFSLGTGERIKGWDQGLLGMCEGEKRKLVIPSELGYGERGWPPKIPGGATLVFEVELLKIER
modifications: Description of sequence: Construct Name: FKBP-266; Mutation(s): Q72R Q84E A117W V85R DRD D50L
With B10, the “Fold Change” value under setting [2] is reported as 60.

B11: FKBP-270: FKBP13 DRD-AcGFP construct of Table 10 (protein)
chain: HCPIKSRKGDVMHMHYTGKLEDGTEFDSSLPRNQPFVFSLGTGERIKGWDQGLLGMCEGEKRKLVIPSELGYGERGWPPKIPGGATLVFEVELLKIER
modifications: Description of sequence: Construct Name: FKBP-270; Mutation(s): Q72R Q84E A117W V85R DRD L52M
As for B11, the FC (tacrolimus, FIGS. 33 and 34) is reported as 38. Also, the “Fold Change” value under setting [2] was 38.

B12: FKBP-274: FKBP13 DRD-AcGFP construct of Table 10 (protein)
chain: HCPIKSRKGDVLHMHYTGKLEDGTEFDSSLPRNQPFVFSLGTGERIKGWDQGLLGMCEGEKRKLVIPSKLGYGERGWPPKIPGGATLVFEVELLKIER
modifications: Description of sequence: Construct Name: FKBP-274; Mutation(s): Q72R Q84E A117W V85R DRD E109K
For the molecule B12, under “tacrolimus, FIGS. 33 and 34”, the FC stood at 34. Moreover, under setting [2], the “Fold Change” value is listed as 34.

B13: FKBP-269 (protein)
chain: HCPIKSRKGDVLQMHYTGKLEDGTEFDSSLPRNQPFVFSLGTGERIKGWDQGLLGMCEGEKRKLVIPSELGYGERGWPPKIPGGATLVFEVELLKIER
modifications: Description of sequence: Construct Name: FKBP-269; Mutation(s): Q72R Q84E A117W V85R DRD H53Q
Regarding B13, the “Fold Change” value under setting [2] was 44.

B14: FKBP-120: FKBP13 DRD Q72R, Q84E, A117H, K101W; SEQ ID NO: 70 (protein)
chain: HCPIKSRKGDVLHMHYTGKLEDGTEFDSSLPRNQPFVFSLGTGEVIKGWDQGLLGMCEGEWRKLVIPSELGYGERGHPPKIPGGATLVFEVELLKIER
modifications: Description of sequence: FKBP13-AcGFP-mCherry Fusion; Construct Name: FKBP-120; FKBP13 DRD in Construct : FKBP13 (mutated to match FKBP12 active site Q72R Q84E A117H) (DRD K101W)
For B14, under setting [1], the “Fold Change” value was 30.53.

B15: FKBP-118: FKBP13 DRD Q72R, Q84E, A117H, V85R; SEQ ID NO: 68 (protein)
chain: HCPIKSRKGDVLHMHYTGKLEDGTEFDSSLPRNQPFVFSLGTGERIKGWDQGLLGMCEGEKRKLVIPSELGYGERGHPPKIPGGATLVFEVELLKIER
modifications: Description of sequence: FKBP13-AcGFP-mCherry Fusion; Construct Name: FKBP-118; FKBP13 DRD in Construct : FKBP13 (mutated to match FKBP12 active site Q72R Q84E A117H) (DRD V85R)
Regarding B15, the “Fold Change” value under setting [1] is recorded as 12.95.

B16: FKBP-267 (protein)
chain: HCPIKSRKGDVLHMHYTGKLEDGTEFDSSLPRNQPFVFSLGTGERIKGWDQGLLGWCEGEKRKLVIPSELGYGERGWPPKIPGGATLVFEVELLKIER
modifications: Description of sequence: Construct Name: FKBP-267; Mutation(s): Q72R Q84E A117W V85R DRD M96W
As to B16, the “Fold Change” value under setting [2] was 67.

B17: FKBP-271: FKBP13 DRD-AcGFP construct of Table 10 (protein)
chain: HCPIKSRKGDVLHMHYTGKLEDGTEFDSSLPRNQPFVFSLGTGERIKGWDQGLLGMCEGEKRRLVIPSELGYGERGWPPKIPGGATLVFEVELLKIER
modifications: Description of sequence: Construct Name: FKBP-271; Mutation(s): Q72R Q84E A117W V85R DRD K103R
In the case of B17, for the setting “tacrolimus, FIGS. 33 and 34”, the FC stood at 19. Moreover, the “Fold Change” value under setting [2] stood at 19.
